Columns and labels:
HeLa Kyoto [1] = assay: solubility in G1/S (NP-40 vs SDS abundance) (log2 ratio); higher = more soluble; details: cell cycle stage: G1/S
HeLa Kyoto [2] = assay: melting temperature (median over replicates), in situ; higher = more thermally stable
HeLa Kyoto [3] = assay: solubility change mitosis vs G1/S (difference of NP-40 vs SDS log2 ratios) (log2 ratio difference); higher = more soluble in mitosis
HeLa Kyoto [4] = assay: thermal stability score vs G1/S (z-score of summed log2 fold changes over temperatures); higher = more thermally stable than in G1/S
[5] = cell cycle stage: early G1 (4.5 h after nocodazole release)
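Wherever melting temperature (median over replicates), in situ is given: HeLa Kyoto cells synchronized by double thymidine or nocodazole block, proteins quantified by TMT10plex mass spectrometry, three independent biological replicates.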
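Wherever solubility change mitosis vs G1/S (difference of NP-40 vs SDS log2 ratios) is given: synchronized HeLa Kyoto cells (double thymidine block for G1/S, nocodazole release for mitosis), protein amounts in NP-40 versus SDS lysates quantified by mass spectrometry, three biological replicates.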
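Wherever solubility in G1/S (NP-40 vs SDS abundance) is given: HeLa Kyoto cells arrested at G1/S by double thymidine block, proteins quantified by TMT10plex mass spectrometry in mild NP-40 versus SDS extracts, three biological replicates.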
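Wherever thermal stability score vs G1/S (z-score of summed log2 fold changes over temperatures) is given: synchronized HeLa Kyoto cells, proteins quantified by TMT10plex mass spectrometry, three biological replicates, mitosis taken 0.5 h after nocodazole release, G1/S directly after double thymidine block.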

Row | Sequence | solubility in G1/S (log2) (HeLa Kyoto [1]) | melting temperature (HeLa Kyoto [2]; cell cycle stage: G1/S) [°C] | melting temperature (HeLa Kyoto [2]; cell cycle stage: mitosis) [°C] | solubility change mitosis (log2) (HeLa Kyoto [3]) | thermal stability score (HeLa Kyoto [4]; [5]) | thermal stability score (HeLa Kyoto [4]; cell cycle stage: mitosis)
1 | MPEDQAGAAMEEASPYSLLDICLNFLTTHLEKFCSARQDGTLCLQEPGVFPQEVADRLLRTMAFHGLLNDGTVGIFRGNQMRLKRACIRKAKISAVAFRKAFCHHKLVELDATGVNADITITDIISGLGSNKWIQQNLQCLVLNSLTLSLEDPYERCFSRLSGLRALSITNVLFYNEDLAEVASLPRLESLDISNTSITDITALLACKDRLKSLTMHHLKCLKMTTTQILDVVRELKHLNHLDISDDKQFTSDIALRLLEQKDILPNLVSLDVSGRKHVTDKAVEAFIQQRPSMQFVGLLATDAGYSEFLTGEGHLKVSGEANETQIAEALKRYSERAFFVREALFHLFSLTHVMEKTKPEILKLVVTGMRNHPMNLPVQLAASACVFNLTKQDLAAGMPVRLLADVTHLLLKAMEHFPNHQQLQKNCLLSLCSDRILQDVPFNRFEAAKLVMQWLCNHEDQNMQRMAVAIISILAAKLSTEQTAQLGTELFIVRQLLQIVKQKTNQNSVDTTLKFTLSALWNLTDESPTTCRHFIENQGLELFMRVLESFPTESSIQQKVLGLLNNIAEVQELHSELMWKDFIDHISSLLHSVEVEVSYFAAGIIAHLISRGEQAWTLSRSQRNSLLDDLHSAILKWPTPECEMVAYRSFNPFFPLLGCFTTPGVQLWAVWAMQHVCSKNPSRYCSMLIEEGGLQHLYNIKDHEHTDPHVQQIAVAILDSLEKHIVRHGRPPPCKKQPQARLN [ZYG11B] | -0.136 | 52.4 | 52.3 | -0.182 | 2.24 | 0.857
2 | MPEEGSGCSVRRRPYGCVLRAALVPLVAGLVICLVVCIQRFAQAQQQLPLESLGWDVAELQLNHTGPQQDPRLYWQGGPALGRSFLHGPELDKGQLRIHRDGIYMVHIQVTLAICSSTTASRHHPTTLAVGICSPASRSISLLRLSFHQGCTIASQRLTPLARGDTLCTNLTGTLLPSRNTDETFFGVQWVRP [CD70] | 0.258 | 54.9 | 57.1 | -0.0934 | -2.35 | -1.58
3 | MPFAEDKTYKYICRNFSNFCNVDVVEILPYLPCLTARDQDRLRATCTLSGNRDTLWHLFNTLQRRPGWVEYFIAALRGCELVDLADEVASVYQSYQPRTSDRPPDPLEPPSLPAERPGPPTPAAAHSIPYNSCREKEPSYPMPVQETQAPESPGENSEQALQTLSPRAIPRNPDGGPLESSSDLAALSPLTSSGHQEQDTELGSTHTAGATSSLTPSRGPVSPSVSFQPLARSTPRASRLPGPTGSVVSTGTSFSSSSPGLASAGAAEGKQGAESDQAEPIICSSGAEAPANSLPSKVPTTLMPVNTVALKVPANPASVSTVPSKLPTSSKPPGAVPSNALTNPAPSKLPINSTRAGMVPSKVPTSMVLTKVSASTVPTDGSSRNEETPAAPTPAGATGGSSAWLDSSSENRGLGSELSKPGVLASQVDSPFSGCFEDLAISASTSLGMGPCHGPEENEYKSEGTFGIHVAENPSIQLLEGNPGPPADPDGGPRPQADRKFQEREVPCHRPSPGALWLQVAVTGVLVVTLLVVLYRRRLH [MAVS] | 0.462 | 54.2 | 54.4 | -0.239 | -0.897 | -0.611
4 | MPGPAAGSRARVYAEVNSLRSREYWDYEAHVPSWGNQDDYQLVRKLGRGKYSEVFEAINITNNERVVVKILKPVKKKKIKREVKILENLRGGTNIIKLIDTVKDPVSKTPALVFEYINNTDFKQLYQILTDFDIRFYMYELLKALDYCHSKGIMHRDVKPHNVMIDHQQKKLRLIDWGLAEFYHPAQEYNVRVASRYFKGPELLVDYQMYDYSLDMWSLGCMLASMIFRREPFFHGQDNYDQLVRIAKVLGTEELYGYLKKYHIDLDPHFNDILGQHSRKRWENFIHSENRHLVSPEALDLLDKLLRYDHQQRLTAKEAMEHPYFYPVVKEQSQPCADNAVLSSGLTAAR [CSNK2A2] | -0.244 | 50.7 | 50.3 | 0.0267 | 1.94 | 2.34
5 | MPGSLPLNAEACWPKDVGIVALEIYFPSQYVDQAELEKYDGVDAGKYTIGLGQAKMGFCTDREDINSLCMTVVQNLMERNNLSYDCIGRLEVGTETIIDKSKSVKTNLMQLFEESGNTDIEGIDTTNACYGGTAAVFNAVNWIESSSWDGRYALVVAGDIAVYATGNARPTGGVGAVALLIGPNAPLIFERGLRGTHMQHAYDFYKPDMLSEYPIVDGKLSIQCYLSALDRCYSVYCKKIHAQWQKEGNDKDFTLNDFGFMIFHSPYCKLVQKSLARMLLNDFLNDQNRDKNSIYSGLEAFGDVKLEDTYFDRDVEKAFMKASSELFSQKTKASLLVSNQNGNMYTSSVYGSLASVLAQYSPQQLAGKRIGVFSYGSGLAATLYSLKVTQDATPGSALDKITASLCDLKSRLDSRTGVAPDVFAENMKLREDTHHLVNYIPQGSIDSLFEGTWYLVRVDEKHRRTYARRPTPNDDTLDEGVGLVHSNIATEHIPSPAKKVPRLPATAAEPEAAVISNGEH [HMGCS1] | 0.0526 | 54 | 55.2 | -0.0813 | -0.19 | 3.42
6 | MPGVKLTTQAYCKMVLHGAKYPHCAVNGLLVAEKQKPRKEHLPLGGPGAHHTLFVDCIPLFHGTLALAPMLEVALTLIDSWCKDHSYVIAGYYQANERVKDASPNQVAEKVASRIAEGFSDTALIMVDNTKFTMDCVAPTIHVYEHHENRWRCRDPHHDYCEDWPEAQRISASLLDSRSYETLVDFDNHLDDIRNDWTNPEINKAVLHLC [EMC8] | 0.269 | 53.1 | 53.3 | -0.272 | -1.83 | -2.67
7 | MPHRKKKPFIEKKKAVSFHLVHRSQRDPLAADESAPQRVLLPTQKIDNEERRAEQRKYGVFFDDDYDYLQHLKEPSGPSELIPSSTFSAHNRREEKEETLVIPSTGIKLPSSVFASEFEEDVGLLNKAAPVSGPRLDFDPDIVAALDDDFDFDDPDNLLEDDFILQANKATGEEEGMDIQKSENEDDSEWEDVDDEKGDSNDDYDSAGLLSDEDCMSVPGKTHRAIADHLFWSEETKSRFTEYSMTSSVMRRNEQLTLHDERFEKFYEQYDDDEIGALDNAELEGSIQVDSNRLQEVLNDYYKEKAENCVKLNTLEPLEDQDLPMNELDESEEEEMITVVLEEAKEKWDCESICSTYSNLYNHPQLIKYQPKPKQIRISSKTGIPLNVLPKKGLTAKQTERIQMINGSDLPKVSTQPRSKNESKEDKRARKQAIKEERKERRVEKKANKLAFKLEKRRQEKELLNLKKNVEGLKL [LTV1] | -0.271 | 50.1 | 48.8 | -0.0961 | -2.27 | -0.672
8 | MPHSYPALSAEQKKELSDIALRIVAPGKGILAADESVGSMAKRLSQIGVENTEENRRLYRQVLFSADDRVKKCIGGVIFFHETLYQKDDNGVPFVRTIQDKGIVVGIKVDKGVVPLAGTDGETTTQGLDGLSERCAQYKKDGADFAKWRCVLKISERTPSALAILENANVLARYASICQQNGIVPIVEPEILPDGDHDLKRCQYVTEKVLAAVYKALSDHHVYLEGTLLKPNMVTPGHACPIKYTPEEIAMATVTALRRTVPPAVPGVTFLSGGQSEEEASFNLNAINRCPLPRPWALTFSYGRALQASALNAWRGQRDNAGAATEEFIKRAEVNGLAAQGKYEGSGEDGGAAAQSLYIANHAY [ALDOC] | 0.202 | 56.9 | 57 | -0.0816 | -1.31 | -2.38
9 | MPKKAKPTGSGKEEGPAPCKQMKLEAAGGPSALNFDSPSSLFESLISPIKTETFFKEFWEQKPLLIQRDDPALATYYGSLFKLTDLKSLCSRGMYYGRDVNVCRCVNGKKKVLNKDGKAHFLQLRKDFDQKRATIQFHQPQRFKDELWRIQEKLECYFGSLVGSNVYITPAGSQGLPPHYDDVEVFILQLEGEKHWRLYHPTVPLAREYSVEAEERIGRPVHEFMLKPGDLLYFPRGTIHQADTPAGLAHSTHVTISTYQNNSWGDFLLDTISGLVFDTAKEDVELRTGIPRQLLLQVESTTVATRRLSGFLRTLADRLEGTKELLSSDMKKDFIMHRLPPYSAGDGAELSTPGGKLPRLDSVVRLQFKDHIVLTVLPDQDQSDEAQEKMVYIYHSLKNSRETHMMGNEEETEFHGLRFPLSHLDALKQIWNSPAISVKDLKLTTDEEKESLVLSLWTECLIQVV [MINA] | -0.11 | 53.4 | 51.4 | -0.0273 | 3.05 | 0.952
10 | MPKKKTGARKKAENRREREKQLRASRSTIDLAKHPCNASMECDKCQRRQKNRAFCYFCNSVQKLPICAQCGKTKCMMKSSDCVIKHAGVYSTGLAMVGAICDFCEAWVCHGRKCLSTHACACPLTDAECVECERGVWDHGGRIFSCSFCHNFLCEDDQFEHQASCQVLEAETFKCVSCNRLGQHSCLRCKACFCDDHTRSKVFKQEKGKQPPCPKCGHETQETKDLSMSTRSLKFGRQTGGEEGDGASGYDAYWKNLSSDKYGDTSYHDEEEDEYEAEDDEEEEDEGRKDSDTESSDLFTNLNLGRTYASGYAHYEEQEN [ZNF330] | -0.262 | 50.4 | 50.9 | -0.0758 | 3.84 | 0.774

From the supplement of paper PMC5998384
